Data published in patent US20090010942A1, “NOVEL PRIMATE CHITINASES AND USES THEREFOR” (WYETH, priority 2007, published 2009).
Where “and” joins values, the source holds several entries; their conditions need not be identical. Equal values may be shown once.

Assays:
mNC = test: methylallosamidin inhibition of mNC, chitobiose-4MU substrate; assay type: biochemical, cynomolgus monkey
Protocol: (§1) Analysis of hAMCase and mNC inhibition by methylallosamidin was performed by incubating various concentrations of methylallosamidin with 2 nM mNC or 2 nM hAMCase for 10 minutes prior to the addition of 5 μM chitobiose-4MU substrate. Maximal activity was determined by the initial rate of the enzyme activity without the inhibitor methylallosamidin. The percentage of enzyme activity was then calculated and plotted for each concentration of methylallosamidin compared to maximal activity. For the data shown in FIGS. 15C and 15D, the maximal initial rate (RFU/sec) is 1.1 for hAMCase and 21.0 for mNC. […] Conversely, 10 times more methylallosaminidin was required to inhibit mNC than hAMCase.

hAMCase = target: T1, hAMCase (Homo sapiens, UniProt Q9BZP6); test: methylallosamidin inhibition of hAMCase, chitobiose-4MU substrate; assay type: biochemical; conditions: 2 nM hAMCase, 5 μM chitobiose-4MU
T1 construct: 6-histidine tag (C); made in house
Protocol: as §1

[1] = apparent Km of purified chitinases with increasing chitobiose-4MU; assay type: biochemical; conditions: for Km: purified 6-histidine tagged enzyme
Source text: hAMCase, engineered with a C-terminal 6-histidine tag, was purified to a single band on SDS-PAGE from a stable CHO cell line transfected with cDNA encoding this hAMCase construct by nickel chromatography. Similarly, mNC, engineered with a C-terminal 6-histidine tag, was purified to a single band on an SDS-PAGE from COS cells transfected with cDNA encoding this mNC construct by nickel chromatography. The enzymatic activity of recombinant hAMCase to mNC was compared, as follows.

[2] = relative specific activity of purified chitinases; assay type: biochemical; conditions: 5 μM chitobiose-4MU, 0.1 M citrate phosphate
Protocol: As shown in FIGS. 15A-15D, further characterization of the purified mNC was performed by measuring the relative specific activity, pH profiling, and inhibition by an art-recognized chitinase inhibitor, methylallosamidin. Briefly, various concentrations of mNC, ranging from 0.156 nM to 5 nM, or hAMCase, ranging from 1.56 nM to 50 nM, were incubated with 5 μM chitobiose-4MU substrate in 0.1 M citrate phosphate, 0.0005% Brij35 buffer. The relative specific activity of each enzyme was then determined by measuring the initial rate of enzyme activity versus the enzyme concentration.

[3] = pH profile of purified chitinases; assay type: biochemical; conditions: for activity at lower pH values: pH 2.0 and 3.5; for pH of maximal activity: pH 2 to pH 8, 5 μM chitobiose-4MU; for slope of the initial rate at the various enzyme concentrations at maximal activity: pH 5.0, 5 μM chitobiose-4MU
Protocol: Analysis of the pH profiles of hAMCase and mNC were performed by incubating various concentrations of purified hAMCase (ranging from 0.05 nM to 50 nM) or mNC (ranging from 0.018 nM to 5 nM) with 5 μM chitobiose-4MU substrate in 0.1 M citrate phosphate buffer containing 0.005% Brij35 prepared at pH 2 to pH 8. The slope of the initial enzyme rate for each of the enzyme concentrations was then compared at each pH. […] The slope of the initial rate at the various enzyme concentrations measured for this maximal activity was 13.1 for mNC and 0.45 for hAMCase. This maximal value was set to 100% for each enzyme and the relative activity, for comparison of the activity at different pH values.

[4] = chitinase kcat and Km determination, hydrolysis of chitobiose-4MU; assay type: biochemical; conditions: for chitobioside-4MU substrate concentration showing substrate inhibition / apparent transglycosylation: hAMCase 1 nM, mNC 0.25 nM
Protocol: Km and Kcat values for hAMCase and mNC. To better understand the mechanism for the increased specific activity of mNC compared to hAMCase, we measured the km and kcat for each enzyme. The progress curves of hAMCase (1 nM) hydrolysis reactions for 4MU product formation were linear during the first 10 min. for chitobioside-4MU substrate concentrations between 0 to 75 μM (data not shown). The rate of product formation was slower at the highest substrate concentration tested, 150 μM, compared to 75 μM, reflecting substrate inhibition due to transglycosylation, consistent with a previous report (Chou et al. (2006) Biochemistry 45, 4444-4454). We confirmed the high substrate concentration was not due to inner filter effect. In separate control experiments, the 4MU fluorescent signal was not quenched by chitobiose-4MU up to 600 μM.
The initial rates within the first 10 min. of hAMCase (1 nM) or mNC (0.25 nM) were plotted against the concentration of chitobiose-4MU that were in the linear range for both enzymes. […] The same Km and Kcat values for each enzyme were obtained from Line-weaver Burke plots of the linear curves.

[5] = chitin RBV assay (chitin hydrolysis); assay type: biochemical; conditions: 37° C., 24 hours
Protocol: Chitin RBV assay. Carboxymethyl-substituted chitin labeled covalently with Remazol Brilliant Violet (CM-Chitin-RBV) (Loewe Biochemica, Sauerlach, Germany) was used to measure chitinolytic activity (Wirth S J, Wolf G A, (1992) Soil Biol Biochem v24 p511-519). A solution of 2 mg/ml CM-chitin-RBV (50 μL) was added to hAMCase (AMCase) or mNC (cyno chitintase) in a total volume of 200 μL of buffer (0.2 M citrate phosphate buffer pH 5.0) in 96-well v-bottom plates (Costar Cat. No. 3894 Acton, Mass.). The plates were sealed with low evaporation lids and incubated at 37° C. for 24 hours. The reaction was terminated by the addition of 1 N HCl, causing precipitation of the non-degraded high-polymeric substrate. The plates were cooled on ice for 10 min. and centrifuged (1400 g, 10 min). The supernatants (100 μL) were transferred to 96-well plates (Costar cat. No. 3690) and measured at […] (Molecular devices).
Chitin hydrolysis. We employed the chitin RBV assay, a soluble, dye-labelled and acid-precipitable assay for endo-chitinases to determine if mNC and hAMCase hydrolyze chitin (Wirth S J, Wolf G A (1992) Soil Biol Biochem 24, 511-519). […] The released amount of soluble chitin oligomers was dose-dependent on enzyme concentration (FIG. 16).

[6] = chitinase enzyme assay in conditioned media of transfected COS cells; assay type: biochemical
Protocol: Enzymatic activity assays were performed using cloned mNC, engineered hNC (stop codon substituted to allow for translation of full protein), engineered mut-hNC (truncated), and cloned hAMCase in COS cells. The full length mNC construct was expressed and the chitinase activity of the resultant gene products was measured.
Cultured conditions were as follows: COS cells were cultured in DME media and were transfected at 90% confluency using TransIT®-LT1 transfection reagent (MIRUS). 24 hours post transfection, cell culture media was replaced with serum-free R1CD1 media. Conditioned media, containing secreted enzyme, was collected 48 hours later. Chitinase enzyme assays were performed directly from these samples, as follows.

[7] = Table 1, pH 5.0 citrate phosphate buffer
[8] = Table 1, pH 5.0 citrate phosphate buffer, read-out: Km
[9] = text, Michaelis-Menten fit, hAMCase 1 nM or mNC 0.25 nM, read-out: Km app

T1 sequence (Q9BZP6 22-476 N45D/D47N/R61M/I339V/F354S/V432G): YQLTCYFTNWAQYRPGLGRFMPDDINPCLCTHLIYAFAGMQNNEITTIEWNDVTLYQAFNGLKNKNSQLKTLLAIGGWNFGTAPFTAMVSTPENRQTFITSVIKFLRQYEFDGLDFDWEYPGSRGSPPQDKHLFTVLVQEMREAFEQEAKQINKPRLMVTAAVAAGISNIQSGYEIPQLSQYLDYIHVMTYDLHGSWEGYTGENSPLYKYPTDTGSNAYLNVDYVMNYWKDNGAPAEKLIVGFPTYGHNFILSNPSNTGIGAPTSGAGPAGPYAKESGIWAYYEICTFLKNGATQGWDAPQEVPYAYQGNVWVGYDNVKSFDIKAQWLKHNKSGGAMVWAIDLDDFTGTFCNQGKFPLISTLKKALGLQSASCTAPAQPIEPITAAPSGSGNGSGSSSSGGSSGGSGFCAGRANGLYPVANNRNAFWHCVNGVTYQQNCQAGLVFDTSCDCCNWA

COC[C@H]1O[C@@H](O[C@H]2[C@@H](O)[C@@H](NC(C)=O)[C@H](OC3C(O)C4N=C(N(C)C)OC4C3CO)O[C@@H]2CO)[C@H](NC(C)=O)[C@H](O)[C@@H]1O (some centres unmarked) [methylallosamidin]
inhibition of mNC with increasing concentrations of methylallosamidin (mNC; 2 nM mNC, 5 μM chitobiose-4MU): dose-dependent inhibition | IC50 (mNC; 2 nM mNC, 10 minutes preincubation, 5 μM chitobiose-4MU): 58 nM | amount of inhibitor required to inhibit mNC relative to hAMCase (mNC; mNC versus hAMCase): 10 times | inhibition of hAMCase with increasing concentrations of methylallosamidin (hAMCase): dose-dependent inhibition | IC50 (hAMCase; 10 minutes preincubation): 5.5 nM

hAMCase: human Acidic Mammalian Chitinase, SEQ ID NO:29
Km [1]: 20 µM | relative specific activity [2]: 0.4 units/sec/nM | activity at lower pH values [3]: lower activity, but retain significant activity | pH of maximal activity [3]: 5.0 | slope of the initial rate at the various enzyme concentrations at maximal activity [3]: 0.45 | kcat [4, 7]: 3.0 ± .35 s − 1 | Km [4, 8]: 42 ± 6 µM | chitobioside-4MU substrate concentration showing substrate inhibition / apparent transglycosylation [4]: 150 µM | kcat ([4]; summary text b32): about 3 s^−1 | kcat ([4]; text b472, unit not given): 3.0+/−0.35 | Km ([4]; text, Michaelis-Menten fit, hAMCase 1 nM or mNC 0.25 nM, listed as AMCase, read-out: Km app): 42 µM | Km [4, 9]: ~42 µM | chitin hydrolysis [5]: generated soluble chitin oligomers

mNC: macaque novel chitinase cloned from cynomolgus monkey, SEQ ID NO:2
enzymatic (chitinase) activity [6]: significant enzymatic activity | lower apparent Km for chitobiose-4MU compared to hAMCase ([1]; mNC versus hAMCase): 10 fold | Km [1]: 2 µM | relative specific activity [2]: 14.4 units/sec/nM | activity at lower pH values [3]: lower activity, but retain significant activity | pH of maximal activity [3]: 5.0 | slope of the initial rate at the various enzyme concentrations at maximal activity [3]: 13.1 | kcat [4, 7]: 31.8 ± 3.2 s − 1 | Km [4, 8]: 6 ± 1 µM | chitobioside-4MU substrate concentration showing substrate inhibition / apparent transglycosylation [4]: ≥ 37 µM | kcat ([4]; summary text b32): about 32 s^−1 | kcat ([4]; text b472, unit not given): 31.8+/−3.2 | Km [4, 9]: ~6 µM and 6 µM | chitin hydrolysis [5]: generated soluble chitin oligomers
